This assay has as its target pre-B cell receptor (pre-BCR) on the surface of live BCP-ALL cells (human) (UniProt P15814). The assay can be described thus: single particle tracking with hidden Markov model (Viterbi plot), one receptor pair on 697 cells.

Chain of pre-B cell receptor (pre-BCR) on the surface of live BCP-ALL cells (chain): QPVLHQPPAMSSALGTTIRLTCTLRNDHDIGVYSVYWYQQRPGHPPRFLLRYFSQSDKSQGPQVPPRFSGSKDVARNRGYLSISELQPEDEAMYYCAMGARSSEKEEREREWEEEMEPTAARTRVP
Chain of pre-B cell receptor (pre-BCR) on the surface of live BCP-ALL cells (P15814 38-213): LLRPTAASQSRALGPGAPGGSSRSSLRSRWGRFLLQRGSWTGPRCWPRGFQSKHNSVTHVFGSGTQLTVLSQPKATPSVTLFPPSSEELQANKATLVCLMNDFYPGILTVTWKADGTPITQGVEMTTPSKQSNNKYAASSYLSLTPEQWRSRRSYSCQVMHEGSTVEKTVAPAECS
Chain of pre-B cell receptor (pre-BCR) on the surface of live BCP-ALL cells (P11912 33-226): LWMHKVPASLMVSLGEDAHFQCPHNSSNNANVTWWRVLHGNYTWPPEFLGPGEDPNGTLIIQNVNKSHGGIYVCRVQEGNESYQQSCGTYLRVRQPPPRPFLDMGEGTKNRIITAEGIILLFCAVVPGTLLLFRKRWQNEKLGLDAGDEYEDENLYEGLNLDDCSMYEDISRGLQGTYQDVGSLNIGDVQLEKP
Chain of pre-B cell receptor (pre-BCR) on the surface of live BCP-ALL cells (P40259 29-229): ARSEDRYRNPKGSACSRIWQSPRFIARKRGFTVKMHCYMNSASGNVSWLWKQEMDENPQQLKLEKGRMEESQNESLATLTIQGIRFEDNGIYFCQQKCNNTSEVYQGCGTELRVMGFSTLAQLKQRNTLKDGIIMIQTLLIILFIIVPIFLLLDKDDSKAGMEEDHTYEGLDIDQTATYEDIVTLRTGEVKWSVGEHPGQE

The substance “pre-B cell receptor (pre-BCR) on the surface of live BCP-ALL cells (from UniProt P15814 38-213; P11912 33-226; P40259 29-229)” gave a homo-interaction lifetime below 3 s.

For the origin of these results see patent US20180022805A1.
